We go through one molecule from patent publication US9587002B2, “Sequence of nucleotides and peptides GSE 24.2 of dyskerin, which can induce telomerase activity, method for obtaining same, therapeutic compositions and applications thereof” (CONSEJO SUPERIOR DE INVESTIGACIONES CIENTIFICAS, priority 2005, dated 2017).

“Also recorded” adds a separate entry of the source.

Data set [1] concerns hTERT. Nature of the data set: RT-PCR expression of hTERT in 293T cell lines after cisplatin. The format is cell-based, human. Conditions: pre-treated 0.5 μg/ml, treated 3 μg/ml cisplatin for 3 and 7 days. On the procedure:
FIG. 7.—Expression levels of different genes related to telomerase in 293T cells: pLNCX and 24.2 following treatment with cisplatin. The cells were seeded in 60-mm plates, treated with 3 μg/ml of cDDP following pre-treatment with 0.5 μg/ml of cisplatin for 3 days and, subsequently, collected at the times specified in the figure (3 and 7 days). Following the extraction of RNA, RT-PCR was performed with oligos specific for hTERT, hTR and dyskerin in order to study the expression levels of the messenger RNAs. As a starting RNA control, oligos for the amplification of GAPDH were used.
One of the explanations for the lower sensitivity of pLNCX 24.2 cells to cisplatin could be a change in the levels of some of the components of the telomerase complex. Therefore, the expression levels of different genes involved in the telomerase complex and the effect that cisplatin had on their expression were studied. To this end, the pLNCX and pLNCX 24.2 cells were pre-treated with 0.5 μg/ml and treated with 3 μg/ml of cisplatin for 3 and 7 days. Using oligos specific for hTR, hTERT and dyskerin, the expression levels of these genes and the effect of cisplatin on said expression were studied. […] This change in the sensitivity to cisplatin could explain, at least partially, the difference in sensitivity in the telomerase activity assays.
Expression of genes by RT-PCR. […]

The subject of data set [2] is telomerase. As to the kind of experiment: Telomerase activity (TRAP) in cells of patients with dyskeratosis congenita. The class given is cell-based, human. As to conditions: DC-1, DC-2, DC-3 and carrier parent (DC-C) cells; 24 hours after transfection vs empty vector. On the procedure: FIG. 10.—Telomerase activity and expression levels of hTERT and hTR in the cells of patients with dyskeratosis congenita and in VA13 cells transiently transfected with the 24.2 plasmid or the pLNCX empty vector. A) Telomerase activity measured by means of the TRAP assay in the cells of patients with dyskeratosis congenita (DC-1, DC-2 and DC-3) and in the carrier parent (DC-C) following electroporation of 45 μg of the pLNCX empty plasmid (−) or the pLNCX 24.2 vector (+) by 15 million cells. B) RT-PCR of the RNA from cells of one of the patients with dyskeratosis congenita, DC3 transfected with the empty vector and DC3 transfected with the 24.2 plasmid, using oligos specific for hTERT and hTR. As a starting RNA control, oligos for the amplification of GAPDH were used. C) Telomerase activity in VA13 cells. […] 24 hours later, the telomerase activity was analysed as described above, using dilutions of the protein extracts from each transfection. […] RNA levels were detected as described above. […] After 24 h of transfection, the luciferase activity was analyzed as described above. […]
Telomerase activity assay based on the TRAP method Wright et al., 1995). The telomerase activity was measured using the TRAPeze telomerase detection kit (Intergen) in accordance with the instruction manual. […]

The subject of data set [3] is hTR. As to the kind of experiment: RT-PCR of hTR in cells of patients with dyskeratosis congenita. As to conditions: RT-PCR 24 hours after transfection. The class given is cell-based, human. On the procedure: (§1) FIG. 10.—Telomerase activity and expression levels of hTERT and hTR in the cells of patients with dyskeratosis congenita and in VA13 cells transiently transfected with the 24.2 plasmid or the pLNCX empty vector. A) Telomerase activity measured by means of the TRAP assay in the cells of patients with dyskeratosis congenita (DC-1, DC-2 and DC-3) and in the carrier parent (DC-C) following electroporation of 45 μg of the pLNCX empty plasmid (−) or the pLNCX 24.2 vector (+) by 15 million cells. B) RT-PCR of the RNA from cells of one of the patients with dyskeratosis congenita, DC3 transfected with the empty vector and DC3 transfected with the 24.2 plasmid, using oligos specific for hTERT and hTR. As a starting RNA control, oligos for the amplification of GAPDH were used. C) Telomerase activity in VA13 cells. The cells were transiently transfected with 16 μg of the control pLNCX empty vector, expressing DKC or the GSE 24.2 peptide per million cells. 24 hours later, the telomerase activity was analysed as described above, using dilutions of the protein extracts from each transfection. D) The expression levels of hTERT and hTR in VA13 cells transfected with 16 μg of the different construct per million cells. RNA levels were detected as described above. GAPDH was used as a control. […] After 24 h of transfection, the luciferase activity was analyzed as described above. […]

In data set [4] the test system is hTERT. As to the kind of experiment: RT-PCR of hTERT in VA13 cells. The format is cell-based. Conditions: transient transfection. On the procedure: as §1

B1: GSE 24.2: 165-pb cDNA fragment (nucleotides 268 to 433) of human dyskerin, SEQ ID NO1, encoding peptide SEQ ID NO2, expressed from pLNCX plasmid (nucleic acid, listed as Homo sapiens)
DNA: GGTTTCATTAATCTTGACAAGCCCTCTAACCCCTCTTCCCATGAGGTGGTAGCCTGGATTCGACGGATACTTCGGGTGGAGAAGACAGGGCACAGTGGTACTCTGGATCCCAAGGTGACTGGTTGTTTAATCGTGTGCATAGAACGAGCCACTCGCTTGGTGAAG
modifications: expressed from pLNCX plasmid; CDS (1)..(165) Sequence GSE 24.2
As to B1, in data set [1], the “hTERT expression after cisplatin in pLNCX 24.2 cells” value is given as “no reduction in expression in the pLNCX 24.2 cells until 7 days of treatment”. In addition, the “telomerase activity in dyskeratosis congenita cells” value in data set [2] is given as “an increase in telomerase activity was observed; also recorded: compensates for the defects in telomerase activity”. The “hTR expression levels in dyskeratosis congenita cells” value in data set [3] is “an increase in the expression levels was observed”. Moreover, in data set [4], the “expression of hTERT RNA in VA13 cells” value is “capable of recovering”.
